Measurements published in the RNAGym collection of RNA variant scans (doi:10.7554/elife.80360).

B1: Twister Ribozyme (parent)
chain: AACACUGCCAAUGCCGGUCCCAAGCCCGGAUAAAAGUGGAGGGGGCGG

Variants of: B1
Assay: self-cleavage, relative activity (ratio to wild type); higher = more cleavage; co-transcriptional

Variant	self-cleavage
AACACUGCCAAUGCCGGUCCUAAGCCUGGAUAAAAGUGGAGGGGGCGG	0.104
AACACUGCCAAUGCCGGUCCUAAGCCCGGAUAAAAGUGGAGGGGGUGG	0.0929
AACACUGCCAAUGCCGGUCCUAAACCCGGAUAAAAGUGGAGGGGGCGG	0.102
AACACUGCCAAUGCCGGUCCUAAGCCCAGAUAAAAGUGGAGGGGGCGG	0.102
AACACUGCCAAUGCCGGUCCUAAGCCCCGAUAAAAGUGGAGGGGGCGG	0.0826
AACACUGCCAAUGCCGGUCCUAAGCCCGAAUAAAAGUGGAGGGGGCGG	0.096
AACACUGCCAAUGCCGGUCCUAAGCCCGCAUAAAAGUGGAGGGGGCGG	0.0653
AACACUGCCAAUGCCGGUCCUAAGCCCGGAUAAAAAUGGAGGGGGCGG	0.0555
AACACUGCCAAUGCCGGUCCUAAGCCCGGAUAAAACUGGAGGGGGCGG	0.0754
AACACUGCCAAUGCCGGUCCUAAGCCCGGAUAAAAGUUGAGGGGGCGG	0.0705
AACACUGCCAAUGCCGGUCCUAAGCCCGGAUAAAAGUGAAGGGGGCGG	0.0714
AACACUGCCAAUGCCGGUCCUAAGCCCGGAUAAAAGUGGAGAGGGCGG	0.0823
AACACUGCCAAUGCCGGUCCUAAGCCCGGAUAAAAGUGGAGUGGGCGG	0.0927
AACACUGCCAAUGCCGGUCCUAAGCCCGGAUAAAAGUGGAGGAGGCGG	0.08
AACACUGCCAAUGCCGGUCCUAAGCCCGGAUAAAAGUGGAGGCGGCGG	0.0867
AACACUGCCAAUGCCGGUCCUAAGCCCGGAUAAAAGUGGAGGGAGCGG	0.126
AACACUGCCAAUGCCGGUCCUAAGCCCGGAUAAAAGUGGAGGGCGCGG	0.0722
AACACUGCCAAUGCCGGUCCUAAGCCCGGAUAAAAGUGGAGGGGACGG	0.123
AACACUGCCAAUGCCGGUCCUAAGCCCGGAUAAAAGUGGAGGGGCCGG	0.0779
AACACUGCCAAUGCCGGUCCUAAGCCCGGAUAAAAGUGGAGGGGGCAG	0.123
AACACUGCCAAUGCCGGUCCUAAGCCCGGAUAAAAGUGGAGGGGGCCG	0.0939
AACACUGCCAAUGCCGGUCCUAAGCCCGGAUAAAAGUGGAGGGGGCGA	0.131
AACACUGCCAAUGCCGGUCCUAAGCCCGGAUAAAAGUGGAGGGGGCGC	0.133
AACACUGCCAAUGCCGGUCCUAAGCCCGGAUAAAAGUGGAGGGGGCGU	0.125
AACACUGCCAAUGCCGGUCCUAAGCCCGGAAAAAAGUGGAGGGGGCGG	0.105
AACACUGCCAAUGCCGGUCCUAAGCCCGGACAAAAGUGGAGGGGGCGG	0.103
AACACUGCCAAUGCCGGUCCUAAGCCCGGAUAAAAGCGGAGGGGGCGG	0.0764

Variant	self-cleavage
AACACUGCCAAUGCCGGUCCUAAGCCCGGAUAAAAGGGGAGGGGGCGG	0.0506
AACACUGCCAAUGCCGGUCCCCUGCCCGGAUAAAAGUGGAGGGGGCGG	0.243
AACACUGCCAAUGCCGGUCCCCAGCCCGGCUAAAAGUGGAGGGGGCGG	1.07
AACACUGCCAAUGCCGGUCCCCAGCCCGGGUAAAAGUGGAGGGGGCGG	1.16
AACACUGCCAAUGCCGGUCCCCAGCCCGGAUCAAAGUGGAGGGGGCGG	1.08
AACACUGCCAAUGCCGGUCCCCAGCCCGGAUGAAAGUGGAGGGGGCGG	0.879
AACACUGCCAAUGCCGGUCCCCAGCCCGGAUUAAAGUGGAGGGGGCGG	0.858
AACACUGCCAAUGCCGGUCCCCAGCCCGGAUAGAAGUGGAGGGGGCGG	0.802
AACACUGCCAAUGCCGGUCCCCAGCCCGGAUAACAGUGGAGGGGGCGG	0.169
AACACUGCCAAUGCCGGUCCCCAGCCCGGAUAAGAGUGGAGGGGGCGG	0.912
AACACUGCCAAUGCCGGUCCCCAGCCCGGAUAAUAGUGGAGGGGGCGG	0.872
AACACUGCCAAUGCCGGUCCCCAGCCCGGAUAAACGUGGAGGGGGCGG	1.01
AACACUGCCAAUGCCGGUCCCCAGCCCGGAUAAAGGUGGAGGGGGCGG	1.02
AACACUGCCAAUGCCGGUCCCCAGCCCGGAUAAAAGUGGCGGGGGCGG	0.102
AACACUGCCAAUGCCGGUCCCCAGCCCGGAUAAAAGUGGUGGGGGCGG	0.152
AACACUGCCAAUGCCGGUCCCCAGCGCGGAUAAAAGUGGAGGGGGCGG	0.112
AACACUGCCAAUGCCGGUCCCCAGCUCGGAUAAAAGUGGAGGGGGCGG	0.631
AACACUGCCAAUGCCGGUCCCCAGCCAGGAUAAAAGUGGAGGGGGCGG	0.768
AACACUGCCAAUGCCGGUCCCCAGCCGGGAUAAAAGUGGAGGGGGCGG	0.101
AACACUGCCAAUGCCGGUCCCCAACCCGGAUAAAAGUGGAGGGGGCGG	0.131
AACACUGCCAAUGCCGGUCCCCACCCCGGAUAAAAGUGGAGGGGGCGG	0.0817
AACACUGCCAAUGCCGGUCCCCAUCCCGGAUAAAAGUGGAGGGGGCGG	0.0876
AACACUGCCAAUGCCGGUCCCCAGCCCGAAUAAAAGUGGAGGGGGCGG	1.01
AACACUGCCAAUGCCGGUCCCCAGCCCGUAUAAAAGUGGAGGGGGCGG	0.89
AACACUGCCAAUGCCGGUCCCCAGCCCGGAUAAAAAUGGAGGGGGCGG	0.547
AACACUGCCAAUGCCGGUCCCCAGCCCGGAUAAAACUGGAGGGGGCGG	0.345
AACACUGCCAAUGCCGGUCCCCAGCCCGGAUAAAAGUGAAGGGGGCGG	0.238
